Data on ten molecules can be found in patent US20240076389A1 (NATIONAL RESEARCH COUNCIL OF CANADA, published 2024).

A word on the Kd: it is the equilibrium constant for the complex coming apart. A word on the koff: it is a measure of how fast the partners let go of each other. What is called kon is a measure of how fast the partners come together.

The target of experiment [1] is T1, human AXL expressed on the cell surface of tumor cell lines (human, UniProt P30530 26-894).
T1 sequence (looked up): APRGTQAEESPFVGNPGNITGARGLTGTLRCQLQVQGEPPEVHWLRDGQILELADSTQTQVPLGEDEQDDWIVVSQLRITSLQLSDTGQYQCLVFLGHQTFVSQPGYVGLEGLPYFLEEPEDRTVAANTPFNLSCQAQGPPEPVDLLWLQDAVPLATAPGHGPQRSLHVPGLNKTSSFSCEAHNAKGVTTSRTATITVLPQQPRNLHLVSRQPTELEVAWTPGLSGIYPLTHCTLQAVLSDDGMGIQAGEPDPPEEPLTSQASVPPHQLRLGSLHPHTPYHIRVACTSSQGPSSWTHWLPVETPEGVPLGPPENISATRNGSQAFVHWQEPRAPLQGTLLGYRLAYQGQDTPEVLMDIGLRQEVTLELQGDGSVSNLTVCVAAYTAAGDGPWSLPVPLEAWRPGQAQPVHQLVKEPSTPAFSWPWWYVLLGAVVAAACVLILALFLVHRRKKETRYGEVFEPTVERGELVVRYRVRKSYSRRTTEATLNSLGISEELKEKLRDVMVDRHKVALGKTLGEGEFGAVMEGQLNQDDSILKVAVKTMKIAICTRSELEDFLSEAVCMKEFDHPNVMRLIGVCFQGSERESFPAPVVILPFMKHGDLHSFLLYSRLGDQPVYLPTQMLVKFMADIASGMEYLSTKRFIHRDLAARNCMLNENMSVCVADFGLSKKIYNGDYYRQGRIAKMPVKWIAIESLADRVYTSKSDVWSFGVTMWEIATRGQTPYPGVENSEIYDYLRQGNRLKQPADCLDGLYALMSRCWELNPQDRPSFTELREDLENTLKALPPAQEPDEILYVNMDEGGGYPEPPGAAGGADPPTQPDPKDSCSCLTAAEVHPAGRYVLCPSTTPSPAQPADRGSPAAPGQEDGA
As to the kind of experiment: cell-based or functional assay.

In experiment [2] the target is T2, recombinant human AXL extracellular domain, C-terminally His8-tagged (rhAXL-ECD) (human, UniProt P30530 26-451).
T2 construct: Made in CHO cells; also called (rh)AXL-ECD His8; human AXL ECD
T2 sequence: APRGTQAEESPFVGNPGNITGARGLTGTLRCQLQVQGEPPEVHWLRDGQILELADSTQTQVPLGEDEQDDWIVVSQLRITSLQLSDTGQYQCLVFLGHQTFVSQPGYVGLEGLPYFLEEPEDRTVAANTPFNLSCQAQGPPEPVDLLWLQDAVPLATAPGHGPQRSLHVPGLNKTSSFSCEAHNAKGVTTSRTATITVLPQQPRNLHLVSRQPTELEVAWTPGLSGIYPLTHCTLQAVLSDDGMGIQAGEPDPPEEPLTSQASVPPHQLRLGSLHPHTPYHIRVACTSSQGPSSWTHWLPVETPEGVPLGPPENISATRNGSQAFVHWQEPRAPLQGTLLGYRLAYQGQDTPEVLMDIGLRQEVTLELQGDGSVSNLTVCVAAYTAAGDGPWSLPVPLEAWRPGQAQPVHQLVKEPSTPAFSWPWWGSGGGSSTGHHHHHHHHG
As to the kind of experiment: SPR, AXL ECD immobilized, VHH monomer flowed, multi-cycle kinetics. How it is done: (§1) For VH Hs and VHH-Fcs, binding to human and cynomolgus AXL ECD was assessed using either a Biacore T200 instrument or a Biacore 3000 instrument. Either human AXL ECD or anti-human Fc antibody was immobilized on a research-grade CM5 series S sensor chip (T200, rhAXL ECD) or a C1 sensor chip (3000, anti-human Fc) using amine coupling in acetate buffer. VHH-Fcs were captured on anti-human Fc surfaces. Either monomeric VHHs (for rhAXL ECD surfaces) or human and cyno AXL ECD (for VHH-Fc surfaces) were flowed over the surfaces at different concentration ranges. Running buffers were HBS-EP (3000) and HBS-EP+(T200). Flow rates were 10-40 ul/min. All binding studies were performed at 25° C. Surfaces were regenerated using 10 mM glycine, pH 1.5.

Experiment [3] concerns the target T2, recombinant human AXL extracellular …. The experiment is described as follows: SPR, AXL ECD immobilized, VHH monomer flowed, single-cycle kinetics. The protocol:
as §1
For orientation: In SPR one partner is held on a chip, and binding of the other changes the refractive index at the surface.

The target of experiment [4] is T3, recombinant cynomolgus AXL extracellular domain (cynomolgus).
T3 construct: range 1-449; also called Cyno AXL; cyno AXL ECD
The experiment is described as follows: SPR Biacore T200, mAb captured on anti-Fc, AXL ECD flowed, single-cycle kinetics. How it is done:
(§2) Surface plasmon resonance. For murine mAbs, binding to human and cynomolgus AXL ECD was assessed using a Biacore T200 instrument. Briefly, either anti-mouse or anti-human Fc antibody was immobilized on a research-grade CM5 series S sensor chip using amine coupling in acetate buffer. Murine or recombinant chimeric murine-human mAbs (mouse VH/VL; human constant regions) were captured, then recombinant human or cyno AXL ECD was flowed over the surface at different concentration ranges (0.1-500 nM) depending on the antibody. The running buffer was PBS/Tween-20 and the flow rate 100 uL/min. All binding studies were performed at 25° C. Surfaces were regenerated using 10 mM glycine, pH 1.5.

The target in experiment [5] is T2, recombinant human AXL extracellular …. The experiment is described as above. The protocol:
as §2

B1: mIgG-F155-3C7-DM1 (antibody, V domains shown)
VH: QVQLQQPGTELVKPGASVKLSCKASGYIFTNFWINWVKQRPGQGLEWIGNIFPGSNSSNYNEKFKNKATLTVDKSSSTAYMHLSSLTSEDSAVYYCVRDYYGGSPDYWGQGTTLTVSS
VL: DIVMSQSPSSLAVSAGEKVTMSCKSSQSLLNSKTRKNYLAWYQQKPGQSPKLLIYWASTRESGVPARFTGSGSGTDFTLTISSVQAEDLAIYYCKHSYNLWTFGGGTKLEIR
modifications: DM1 through SMCC linker on lysine residues of the antibody; sites not given
For the molecule B1, in experiment [1], the “IC50 of growth inhibition (CellTiterGlo, 5 days) of NCI-H292 cells, -Gas6” value (“IC50 of growth inhibition … -Gas6” for short) was found to be 0.327 nM and the “IC50 of growth inhibition of NCI-H292 cells, +Gas6 (2 µg/mL)” value (“IC50 of growth inhibition … (2 µg/mL)” below) turned out to be 3.9 nM.

B2: NRC-sdAb006 (VHH monomer) (VHH)
VHH: QVKLEESGGGLVQAGASLRLSCVASESIFGFNTMGWYRQAPGNERELVASISNSKRTMYADSVKGRFTISRDNAKNTVNLQMNNLKPEDTAVYYCRAWGIITSATVYWGQGTQVTVSS
notes: Llama VHH monomer; not shown: 6xHis and Myc tags
Regarding B2, in experiment [2], the equilibrium dissociation constant (Kd) came to 19 nM, the koff was 0.0045 s⁻¹ and the on-rate (kon) amounted to 240000 M⁻¹ s⁻¹.

B3: NRC-sdAb005 (VHH monomer) (VHH)
VHH: QVKLEESGGGLAQAGGSLRLSCAASGSISSINTIGWFRQAPGKQRELVAASDSGANRNYADSVKGRFTISRDNAKNTVYLQMNNLKPEDTAIYYCRAWGTGTISTMYWGQGTQVTVSS
notes: as for B2
Take B3: in experiment [2], the Kd was 58 nM, the koff was found to be 0.0097 s⁻¹ and the on-rate (kon) came out at 170000 M⁻¹ s⁻¹.

B4: hFc-F111-5E9-VC-MMAE (antibody, human IgG1, kappa, V domains shown)
VH: QIQLVQSGPELKKPGETVKISCKASGYTFTKYGMNWVKQAPGKGLKWMGWINTYTGEPTYADDFKGRFAFSLETSASTAYLQINNLTTEDMVTYFCAKGGYYSNPIYPMDYWGQGTSVTVSS
VL: DIQMTQTTSSLSASLGDRVTISCRASQDINNYLNWYQQKPDGTVKLLIYYISRLHSGVPSRFSGSGSGTDYSLTISNLELEDVATYFCQQGNTLPFTFGSGTKLEIKR
modifications: VC-MMAE conjugate; attachment sites not given
B4: in experiment [1], the “IC50 of growth inhibition … -Gas6” value is around 1 nM.

B5: mIgG-F149-4G4-DM1 (antibody, V domains shown)
VH: QIQLVQSGPELKKPGETVKISCKTSGYTFTYYGINWVKQAPGKGLEWMGWINTYLGEPTYADDFKGRFAFSLETSASTAYLQINNLRDEDMATYFCTRGTMSYSFDYWGQGTALTVSS
VL: QNVLTQSPAIMSASPGEEVTMTCRASSSVSSSYLHWYQQKSGASPKLWIYSTSKLASGVPARFSGSGSGTSYSLTISSVEAEDAATYYCHQYSGDPLTFGSGTKLEVK
modifications: DM1 through SMCC linker on lysine residues of the antibody; sites not given
For the molecule B5, in experiment [1], the “IC50 of growth inhibition … -Gas6” value amounted to 0.015 nM and the “IC50 of growth inhibition … (2 µg/mL)” value worked out at 0.013 nM.

B6: NRC-sdAb001 (VHH monomer) (VHH)
VHH: QVKLEESGGGLVQAGGSLRLSCTASASISSFDIMGWYRQAPGKQRELVAAITTLDIANYRDSVKGRFTISRDNAKNTVYLQMDSLKPEDTARYHCAAFQSDQNYWGQGTQVTVSS
notes: Llama VHH made as 6xHis- and Myc-tagged monomer in E. coli; not shown: 6xHis and Myc tags
Turning to B6, in experiment [3], the Kd was 4 nM, the koff is 0.037 s⁻¹ and the kon came to 8.5e+06 M⁻¹ s⁻¹.

B7: hFc-F107-7H5-DM1 (antibody, human IgG1, kappa, V domains shown)
VH: QVQLQQPGAELVKPGASVKLSCKASGYTFTSYWINWVKQRPGQGLEWIGNIYPDSSSTNYNEKFKSKATLTVDKSSTTAYIQFSSLTSEDSAVYYCTRDTYGGSPDYWGQGTTLTVSS
VL: DIVMSQSPSSLAVSAGEKVTMSCKSSQSLLNSRTRKIYLAWYQQKPGQSPKLLIYWASTRQSGVPDRFTGSGSGTDFTLTISSVQAEDLAVYYCKQSYNLWTFGGGTKLEIKR
modifications: DM1 through SMCC linker on lysine residues; sites not given
For B7, in experiment [1], the “IC50 of growth inhibition … -Gas6” value is 0.014 nM and the “IC50 of growth inhibition … (2 µg/mL)” value came out at 0.098 nM.

B8: hFc-F107-8D12-DM1 (antibody, human IgG1, kappa, V domains shown)
VH: QVQLQQPGAELVKPGASVQLSCKASGYTFISFWINWVKQRPGQGLEWMGNIFPGSSSTNYNEKFKSKATLTVDKSSSTAYMQLSSLTSEDSAVYFCARDYYGGSPDYWGQGTTLTVSS
VL: DIVMSQSPSSLAVSAGERVTMSCKSSQSLLNTRTRKNYLAWYQQKPGQSPKLLIYWASTRESGVPDRFTGSGSGTDFTLTISSVQAEDLAVYYCKQSYNLWTFGGGTKLEIKR
modifications: DM1 through SMCC linker on lysine residues; sites not given
In the case of B8, in experiment [1], the “IC50 of growth inhibition … -Gas6” value amounted to 0.011 nM and the “IC50 of growth inhibition … (2 µg/mL)” value was determined as 0.296 nM.

B9: NRC-sdAb003 (VHH monomer) (VHH)
VHH: QVQLVESGGGLVQAGGSLRLSCAASGVTLDYTAIGWFRQAPGKERELVAAITSGGNTDYAESAKGRFRISRDNSKNTIYLQMNSLKPEDTGVYYCAARRGGARGEYDYWDQGTQVTVSS
notes: as for B2
Take B9: in experiment [3], the Kd amounted to 955 nM, the koff was found to be 0.0054 s⁻¹ and the kon was found to be 8500 M⁻¹ s⁻¹.

B10: hFC-F111-3C8 (antibody, human IgG1, kappa, V domains shown)
VH: QVQLQQPGAELGKPGTSVKLSCKASGYTFTSYWMHWVKRVPGQGLEWIGNINPNSTSADYNEKFKRKATLTVDKSSSTAYMQLSTLTSEDSAVYYCTRPLMGPYWYFDVWGTGTTVTVSS
VL: QIVLTQSPAIMSASPGEKVTISCSASSSVSYMYWYQQKPGSSPKPWIYRTSNLASGVPARFSGSGSGTSYSLTISSMEAEDAATYYCQQYHNYPPTFGGGTKLEIKR
notes: Chimeric mAb, human IgG1 / human kappa constant regions; also called mAb F111-3C8; chimeric F111-3C8
In the case of B10, in experiment [4], the Kd amounted to 18 nM, the koff came to 0.0011 s⁻¹ and the on-rate (kon) was 60000 M⁻¹ s⁻¹. In experiment [5], the Kd was 12 nM, the koff worked out at 0.001 s⁻¹ and the kon stood at 86000 M⁻¹ s⁻¹.
